Laboratory results: PMC4134136 (PLoS ONE, 2014)

Target: the molecule itself
Experiment: crystal structure; NOD1 CARD and Ub mixed 1:1, 1 mM each, in GF buffer (25 mM sodium phosphate, 25 mM NaCl, 5 mM DTT, pH 7.0); hanging drop, 100 mM PCB, 25% PEG 1500, pH 9.0 (crystals formed at pH ~8.6); 2.90 Å

B1: Caspase Recruitment Domain (CARD) of human NOD1, residues serine 16 to glycine 108 (domain or fragment)
chain: SHPHIQLLKSNRELLVTHIRNTQCLVDNLLKNDYFSAEDAEIVCACPTQPDKVRKILDLVQSKGEEVSEFFLYLLQQLADAYVDLRPWLLEIGLE
modifications: dimethyl-arsenic adduct on the sulfhydryl of Cys59 (formed in the crystallization buffer with cacodylate and DTT)
notes: NOD1, human, CARD, residues serine 16 to glycine 108; leucine and glutamic acid inserted between glycine 108 and the 6xHis-tag, from an XhoI restriction site; Purified as a monomer (gel filtration removed residual dimer); in the crystal a homodimer with swapped sixth helices; also called NOD1 CARD; CARD A
B1: binds.
